Test results reported in patent US6936586B1, “Synthetic IL-10 analogues” (Steeno Research Group A/S, priority 1996, dated 2005).
Peptide text beside a SMILES is read from it.

Key:
human monocytes [1] = experiment: Viability of cultured cells with IT9302; assay type: cell-based; details: any concentration of IT9302 between 0.1 and 1000 ng/ml; viability always exceeded 80% after 1 day in culture
human monocytes [2] = experiment: Determination of apoptosis in monocytes (DNA typing, propidium iodide flow cytometry); assay type: cell-based; details: with IFN-γ stimulation; non-stimulated 6.6%, IFN-γ alone 4.1%
Experimental: Alternatively cells were fixed in 10% DMSO, 40% RPMI 1640 and 50% sterile FCS, and stored at −80° C. and used for DNA typing.
DNA typing of the stimulated monocytes. The fixed cells were incubated in 70 ethanol for 60 minutes and washed twice in Hank's solution. 1×10^6 cells were resuspended in 250 μl of RNase 1 μg/ml in 1.12% sodium citrate, pH 8.4 (Ribonuclease A, Pharmacia No. 17-0442-01) and incubated at 37° C. for 3 minutes. Thereafter, 250 μl of propidiumiodide (50 μg/ml in Hank's solution) was added, and cells were incubated in the dark for 30 minutes. After this the cells were washed twice in Hank's solution (Jensen et al., (110)). The DNA content was measured by flow cytometry on a Coulter-Epics XL-MCL at a wavelength of 550 nm.
The IFN-γ stimulated monocytes from above were incubated with propidium iodide and the DNA content was measured by flow cytometry. The fraction of cells expressing DNA in G1 or G2 phase of cell proliferation was measured and also the fraction expressing apoptosis.

[3] = test system: normal human CD4+ T cells; experiment: IL-4 production by cultured CD4+ T lymphocytes, ECL-Western blotting; assay type: cell-based; details: IT9302 10 ng/ml or IL-10 100 ng/ml, 3 days, cytosolic fractions
Experimental: CD4+ T lymphocytes were purified from heparinized normal human blood. Following Lymphoprep™ (Nycomed Pharma, Oslo, Norway) gradient centrifugation, the mononuclear cells were further sorted at 4° C. using Dynabeads (Dynal AS, Norway) coated with monoclonal anti-CD4 antibodies. The beads were detached by adding polyclonal anti-mouse antibody (Dynal AS, Norway). The purity of the positively selected cells were higher than 99% as judged by FACS analysis. […]
Cells or freeze-dried cell culture supernatants were used for IL-4 protein content determination. […] The blots were then incubated with a polyclonal goat anti-human IL-4 antibody (R&D Systems, UK) followed by a horseradish peroxidase-labelled secondary antibody (Cat. no. RPN 2106 ECL, Amersham, UK), and the immunostaining was detected by exposing a film (Kodak X-OMAT-S, USA) for 90 seconds.
Thus, CD4+ T cells, purified as described in “Methods for T cell chemotaxis”, and cultured as described in the section “Determination of IL-4 production by CD4+ T lymphocytes”, were stimulated for 3 days with IT9302 (10 ng/ml) or IL-10 (100 ng/ml). Cytosolic fractions were collected and analyzed for their IL-4 content using Western blotting (FIG. 9) and a goat anti-human IL-4 polyclonal antibody.

PBMCs = experiment: T cell proliferation, PHA stimulated PBMC, 3H-thymidine incorporation; assay type: cell-based, human; details: 72 hours, 3H-thymidine last 18 hours
Experimental: Proliferation assay. PBMCs (2×10^5) were cultivated in 200 μl of RPMI medium with 10% FCS for 72 hours with PHA 0.5 μl/ml and rhIL-10 (1, 10, 100 ng/ml) or IT9302 (0.1, 1, 10 ng/ml) in triplets. The last 18 hours ^3H-thymidine was added with 0.5 μCi/well (Amersham, Denmark). The cells were harvested on a filter (Glass Microfibre Filters, Whatman, Cat. No. 1822 849) and scintillation fluid (Ultima, Gold MV, Packard) was added. The scintillation counting was made on Tri-Carb model 1600 TR, Packard.
PBMC's were stimulated with PHA as described above and rhIL-10 and IT9302 were added for 72 hours, and the ^3H-thymidine incorporation was measured for the last 18 hours.

human monocytes [4] = experiment: Class II MHC (HLA-DR) antigen expression on IFN-γ stimulated human monocytes, flow cytometry; assay type: cell-based; details: 10 ng/ml rhIL-10 before IFN-γ 10 ng/ml, 40 hours; unstimulated 36.8%, IFN-γ alone 58.4%
Experimental: HLA-DR expression on human monocytes. The monocytes were isolated from fresh, heparinized blood by adherence to plastic at 37° C. in RPMI 1640 containing 10% FCS. After incubation, the supernatant was removed, Hank's solution (4° C. with 1% FCS) was added, and the cells were detached by cooling at […] for 15 minutes and gentle banging to the table. Monocytes were stimulated (2×10^6 cells/ml) in RPMI 1640 added 2% FCS, with IFN-γ (10 ng/ml), or rhIL-10 (100, 10, 1 ng/ml) added before IFN-γ, or IT9302 (10, 1, 0.1 ng/ml) added before IFN-γ for 40 hours. The cells were detached from the wells by cooling as before. Fresh, non-fixed cells were used for surface typing by antihuman antibody for HLA-DR. The cells were resuspended in Hank's solution with 1% FCS, 1×10^6 cells/ml and FITC conjugated mouse-anti-human HLA DR, DP, […] antibodies were added (F 0817, DAKO Denmark) for 45 minutes. The cells were washed three times in Hank's solution and a FACS analysis was performed on a Coulter-Epics XL-MCL flow cytometer at a wavelength of 488 nm. Non-specific binding was determined with a non-relevant Fitch conjugated antibody (mouse anti goat DAKO F 479).
The monocytes were purified as described above and stimulated for 40 hours by IFN-γ (10 ng/ml) and/or rhIL-10 and/or IT9302 added 30 minutes before IFN-γ. […]

| Molecule | effect on viability of cells (human monocytes [1]) | fraction of monocytes expressing apoptosis (human monocytes [2]) | production of IL-4 by cultured normal human CD4+ T cells [3] | optimum concentration for downregulation of cell proliferation (PBMCs) | MHC II antigen expression in the cell population (human monocytes [4]) |
| --- | --- | --- | --- | --- | --- |
| CC[C@H](C)[C@H](NC(=O)[C@H](CCCCN)NC(=O)[C@H](CCSC)NC(=O)[C@@H](NC(=O)[C@H](CCSC)NC(=O)[C@H](Cc1ccc(O)cc1)NC(=O)[C@H](C)N)[C@@H](C)O)C(=O)N[C@@H](CCCNC(=N)N)C(=O)N[C@@H](CC(N)=O)C(=O)O [IT9302, NH2-Ala-Tyr-Met-Thr-Met-Lys-Ile-Arg-Asn-COOH] (H-AYMTMKIRN-OH) | did not in this or in the following examples affect viability |  |  |  |  |
| rhIL-10: recombinant human interleukin 10 obtained from Pepro Tech Inc. (protein) SPGQGTQSENSCTHFPGNLPNMLRDLRDAFSRVKTFFQMKDQLDNLLLKESLLEDFKGYLGCQALSEMIQFYLEEVMPQAENQDPDIKAHVNSLGENLKTLRLRLRRCHRFLPCENKSKAVEQVKNAFNKLQEKGIYKAMSEFDIFINYIEAYMTMKIRN |  | 10.3% | induce the production of IL-4 | 100 ng/mL | 25.2% |
